From patent publication CN114437205A (DOMA MEDICINE TECH SUZHOU LIMITED COMPANY, dated 2022)

Target: SARS-CoV-2-S2 ECD-his (Acro, S2N-C52H5) (SARS-CoV-2, UniProt P0DTC2 686-1213)
Assay: ELISA

B1: 抗体CT150 (antibody, V domains shown)
VH: QEQLVESGGGVVQPGRSLRLSCAASGFTFSSYAMHWVRQAPGEGLEWVALISYDGDNKYYADSVKGRFTISRDNSKTTLFLQMNSLRAEDTAVYYCARDRGSYFYGVDVWGQGATVTVSS
VL: DIQLTQSPSFLSASVGDRVTITCRASQDINSYLAWYQQKPGKAPKLLIYAASTLQSGVPSRFSGSGSGTEFTLTISSLQPEDFATYYCQQLNSYPIFTFGPGTKVDIK
  EC50: 8.18 ng/mL
